B1: STX5 (parent)
chain: ESTIVELGSIFQQLAHMVKEQEET
B2: CCND2 (parent)
chain: YFKCVQKDIQPYMRRMVATWMLEV

Variants of: B1
Assay: protein stability index of a GFP-peptide fusion (GPS, HEK-293T) (PSI 1-6); higher = more stable
Settings: c terminus: a fixed tail appended
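Note: lentivirally expressed fusions sorted by FACS into six bins by GFP to DsRed ratio, PSI derived from sequencing read proportions per bin multiplied by bin number.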

Protein stability index: each site, then its substitutions
I4: S 2.64; A 2.27; T 2.73; K 2.55; E 2.8; R 3; H 3.14; F 2.29; W 2.54; C 2.83; P 2.93; D 2.78; L 1.81; Y 1.91; G 2.42; M 1.57; N 3.05; Q 3.69; V 3.59
L14: S 5.26; C 4.42; G 4.64; Y 1.81; F 1.69; H 4.11; M 3.77; D 5.05; W 3.17; Q 4.75; T 4.78; N 5.24; P 4.93; I 2.09; K 5.2; V 2.81; A 4.31; E 5.33; R 5.32
E1: M 2.45; H 1.27; C 2.31; V 1.79; R 2.27; T 2.26; N 2.22; L 2.6; D 2.77; W 1.61; A 2.13; I 3.04; Y 2.49; P 2.71; Q 1.68; F 2.08; K 1.87; G 2.69; S 1.9
G8: C 2.33; L 1.85; A 2.47; R 1.84; Q 1.68; K 1.94; S 2.79; H 2.48; I 2.24; Y 3.89; E 3.02; F 2.06; M 1.35; D 2.28; N 2.44; P 3.99; T 2.69
F11: C 3.62; Q 3.48; T 4.81; W 2.83; S 4.27; G 5.35; Y 3.19; M 2.98; H 5.76; D 5.77; K 4.85; P 4.65; R 4.92; I 2.27; N 5.61; V 3.19; A 3.83; L 2.8
V5: G 2.79; K 3.1; H 1.71; W 2.22; T 1.99; I 2.55; L 2.04; Y 2.28; N 2.04; Q 2.07; E 2.12; M 2.56; D 3; P 3.5; S 2.46; R 2.88; C 2.58; F 1.83; A 2.28
T3: D 2.04; K 2.83; M 1.44; V 2.56; F 1.3; A 2.96; Y 2.05; W 1.24; R 3.19; S 2.72; Q 3.88; E 1.43; I 2.94; C 2.02; H 2.4; N 2.31; P 3.03; L 1.85
Q13: S 2.95; H 2.43; I 1.44; C 2.32; Y 2.37; L 1.54; A 2.4; N 2.23; M 1.98; F 1.57; V 2.16; E 2.57; T 3.28; P 4.54; G 4.12; K 2.8; W 1.88
I10: E 5.46; W 2.58; T 4.49; A 4.32; F 2.26; D 5.88; N 5.07; Q 4.27; Y 3.49; K 3.69; H 4.5; P 5.58; S 4.89; R 3.9; M 2.6; C 3.72; L 2.63; V 3.1
E6: L 2.34; F 2.19; C 2.06; R 4.41; K 2.54; Q 2.33; I 3.1; P 2.75; A 1.65; H 2.33; G 2.75; N 3.14; V 1.62; Y 1.81; D 1.63; T 1.91; M 1.95
S2: C 3.01; T 2.05; M 1; Q 1.97; G 1.78; A 1.39; D 2.47; N 1.97; R 1.25; L 2.28; F 2.93; H 1.92; P 1.7; Y 1.7; V 3.07; W 2.19; E 2.62; I 1.86; K 2.24
S9: G 3.22; L 1.71; T 2.11; D 2.55; H 2.64; K 2.34; V 1.8; Q 2.1; C 1.63; E 2.08; R 2.41; A 1.65; I 1.32; M 1.87; N 2.26; Y 1.46
Q12: R 2.4; N 2.99; A 1.98; T 1.93; M 1.98; V 2.07; S 2.1; H 3.15; D 3.34; K 1.79; L 3.46; F 2.26; W 1.32; I 2.26; C 1.7; Y 2.17; P 4.39
A15: D 4.28; C 2.21
L7: P 4.75; Y 3.97; C 3.74; E 5.22; Q 4.89; K 5.07; W 2.99; N 4.96; V 4.25; T 4.5; F 3.03; D 5.12; I 2.16; G 5.65; M 2.48; R 5.13; S 5.42; H 4.9

Variants of: B2
Assay: as above
Settings: c terminus: a fixed tail appended

Protein stability index: each site, then its substitutions
E23: W 3.1; S 3.08; V 2.73
W20: F 2.34; N 1.24
C4: N 3.42; P 2.44; R 2.25; T 1.74; K 2.45; I 2.84
L22: F 4.78
A18: T 3.65; F 3.1
V17: K 2.5; E 2.49; D 3.18; G 3.39; M 2
K3: T 3.31; S 3.75; Q 2.12; N 2.9
Q10: K 3.06; Y 3.78
I9: C 2.51; Y 3.57; P 3.18; H 2.78
R15: K 2.36; F 4.08
Y1: L 2.14; Q 3.55; P 1.71; N 2.23
Y12: D 3.35; R 4.86; S 2.83
M16: R 2.65; P 3.25; G 3.04
V5: E 2.58; I 2.92; F 2.7; R 4.02
P11: K 2.82
M13: A 3.23; Y 3.66; V 1.66
R14: D 2.16; S 3.39; L 4.22; N 2.06; K 1.44; P 3.71
T19: R 1.58; I 2.75; F 2.85
K7: T 3.22; L 2.56; R 2.69; H 4.29; P 2.48
Q6: W 1.64; G 2.47
F2: A 2.97; Q 3.63; C 2.61; D 2.15
M21: V 2.55; L 1.76; G 2.52; R 1.86; E 2.72
V24: E 2.42; M 2.09; R 2.65; F 3.08; W 1.91
D8: S 3.28; K 2.94

— the supplement of paper PMC10567573
